# Reference: article PMC8754659
# B1: sgRNA (20 nt spacer) + FAM target DNA 38 bp (mixed)
# DNA 1: ATTGCCGTCAGGAAATTAGGTGCGCTTAGCTGGTATTG
# DNA 2: CAATACCAGCTAAGCGCACCTAATTTCCTGACGGCAAT
# Target: SpyCas9 (Streptococcus pyogenes, UniProt Q99ZW2 1-1368)
# Test: EMSA
# SpyCas9, sequence (Q99ZW2 whole entry): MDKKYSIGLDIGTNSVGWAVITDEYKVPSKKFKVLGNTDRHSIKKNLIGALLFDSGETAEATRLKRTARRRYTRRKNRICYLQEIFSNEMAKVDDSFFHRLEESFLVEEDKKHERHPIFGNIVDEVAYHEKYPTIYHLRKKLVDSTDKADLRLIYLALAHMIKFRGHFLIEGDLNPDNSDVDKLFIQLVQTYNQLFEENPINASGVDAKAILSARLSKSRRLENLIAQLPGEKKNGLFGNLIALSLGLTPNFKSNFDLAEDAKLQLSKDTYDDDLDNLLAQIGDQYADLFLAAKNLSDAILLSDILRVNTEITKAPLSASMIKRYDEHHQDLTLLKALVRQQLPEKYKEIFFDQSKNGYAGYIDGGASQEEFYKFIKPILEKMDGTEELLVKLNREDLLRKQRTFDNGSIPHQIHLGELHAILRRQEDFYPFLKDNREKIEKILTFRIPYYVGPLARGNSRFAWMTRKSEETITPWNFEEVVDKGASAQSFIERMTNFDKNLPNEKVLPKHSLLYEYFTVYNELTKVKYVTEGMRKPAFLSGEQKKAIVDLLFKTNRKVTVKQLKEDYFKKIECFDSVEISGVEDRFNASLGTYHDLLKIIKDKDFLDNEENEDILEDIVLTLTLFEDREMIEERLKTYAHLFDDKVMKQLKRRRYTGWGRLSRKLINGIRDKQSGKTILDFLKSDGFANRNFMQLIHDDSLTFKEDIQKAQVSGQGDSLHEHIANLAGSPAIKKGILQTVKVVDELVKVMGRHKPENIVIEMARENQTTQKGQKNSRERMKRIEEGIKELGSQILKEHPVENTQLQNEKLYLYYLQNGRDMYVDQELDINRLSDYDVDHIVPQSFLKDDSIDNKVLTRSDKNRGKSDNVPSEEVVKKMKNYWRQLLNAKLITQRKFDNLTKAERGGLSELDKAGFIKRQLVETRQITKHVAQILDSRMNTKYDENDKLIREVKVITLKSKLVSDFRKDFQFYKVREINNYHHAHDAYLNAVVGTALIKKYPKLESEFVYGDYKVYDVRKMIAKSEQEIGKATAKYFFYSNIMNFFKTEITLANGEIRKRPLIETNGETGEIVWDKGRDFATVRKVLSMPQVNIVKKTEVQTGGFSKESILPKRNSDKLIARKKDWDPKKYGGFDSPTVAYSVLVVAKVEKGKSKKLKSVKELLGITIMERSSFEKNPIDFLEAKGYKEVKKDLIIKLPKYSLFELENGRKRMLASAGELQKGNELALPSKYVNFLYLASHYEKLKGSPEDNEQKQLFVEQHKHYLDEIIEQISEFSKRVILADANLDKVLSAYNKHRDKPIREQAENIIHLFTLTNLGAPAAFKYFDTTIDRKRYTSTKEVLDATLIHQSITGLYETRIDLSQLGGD
binder,measurement,value
B1,binding result,binds
